Data taken from patent publication US20240245613A1, “PEPTIDE LIQUID DROPLETS AND METHODS OF USING THE SAME” (RAMOT AT TEL AVIV UNIVERSITY LTD., priority 2021, published 2024).
“Also recorded” adds a separate entry of the source.

Key:
Assay type in all cases: physicochemical
[1] = Phase diagrams / liquid-liquid phase separation (turbidity at 500 nm, optical and confocal microscopy); conditions: 0.2 M NaCl; for liquid-liquid phase separation (LLPS) / droplet formation, in words: as a function of peptide concentration and pH; for peptide concentration at which phase separation is observed: pH increased until turbidity appeared
Description: 150 μl of 5, 10, 20 and 30 mM peptide solutions were prepared in 20 mM of the suitable buffer (citrate buffer for a pH range of 3-6, tris buffer for pH range of 7-9 and ammonium bicarbonate to a pH range of 9-12) with 0.2 M NaCl. The pH was increased gradually until a turbidity appeared and measured as described below. The turbidity of 35 μl was measured in triplicates at λ=500 nm. This process repeated at higher pH, the pH increased until the turbidity faded, and a sediment appeared. All experiments were performed in triplicates and the presented value is the average.
150 μl of 20 μM peptide solutions were prepared in 20 mM Tris buffer. The pH was adjusted to the desired value of 6, 7, 8, 9, 10 and 11. The turbidity of 35 μl was measured in triplicates at λ=500 nm.
All samples were imaged in a 96 Well Black Glass bottom plate, glass 1.5H (made by Hangzhou Xinyou, and purchased from Danyel Biotech) 10 minutes after preparation. The images were taken by Zeiss Zen 900 confocal microscope with ×20/0.8 NA Plan-Apochromat air objective. The light microscopy images were taken at PMT mode. PMT imaging were taken with 561 nm laser and fluorescence imaging were taken with 488, 561 and 405 nm lasers for fluorescein, rhodamine B and GFP, respectively.
A phase diagram was created by increasing the pH at various peptide concentrations until a visible turbidity occurred. The turbidity was measured as the absorbance at λ=500 nm. To confirm that the turbidity occurred as a result of coacervation rather than precipitation, we performed an optical microscopy analysis of 20 mM peptide solution at pH 8.

[2] = Fluorescence recovery after photobleaching (FRAP) of peptide droplets; conditions: for apparent diffusion coefficient, comparison in words: among the four LLPS-promoting peptides; for Apparent diffusion coefficient D: droplets prepared with 0.5% FITC labeled peptide, calculated from recovery time; for mobility and dynamics of the droplets: unit not given
Description: FRAP experiments were performed by a Zeiss Zen 900 confocal microscope with ×20/0.8 NA Plan-Apochromat air objective. A circular area with radius of 2.5 μm was bleached with a 488 nm laser 100% intensity at 10 iterations; subsequent recovery of the bleached area was recorded with a 488 nm laser. Photobleaching correction and recovery time were calculated using OriginLab. The final FRAP recovery curve is the average of recovery curves collected from five separate droplets.
A fluorescence […] after photo bleaching (FRAP) used to evaluate the diffusion of the droplets. The droplets were prepared with 0.5% of FITC labeled peptide and were observed by confocal microscope. The apparent diffusion coefficients were calculated as followed: […]

[3] = Encapsulation efficiency of fluorescent payloads in peptide droplets; conditions: 20 mM peptide, 20 mM Tris + 0.2 M NaCl, pH 8
Description: 1 mM Stock solutions of the fluorescein and Rhodamine B dye molecules were prepared in 20 mM Tris buffer. A 20 mM peptide coacervated solutions were prepared in 20 mM Tris+0.2 M NaCl at pH 8. A 148.5 μl of peptide solution was mixed with 1.5 μl of dye solution in a 1.5 ml Eppendorf tube and was pipetted. The 15 μl of GFP solution was added to 135 μl of peptide solution and was mixed in a 1.5 ml Eppendorf tube and was pipetted. After 10 minutes the samples were centrifuged at 15,000 rcf for 10 minutes. A volume of 120 μl from the supernatant was collected and vortexed and then the absorbance of 35 μl triplicates was measured in a 384 well black plate by Biotek H1 synergy plate reader (purchased from Lumitron, Israel). For GFP, a 7.5 μl of 20 mM Tris buffer to a 7.5 μl GFP aliquot from the purchased stock solution. The 15 μl of GFP solution was added to 135 μl of peptide solution and was mixed in a 1.5 ml Eppendorf tube and was pipetted. The concentration of GFP at the supernatant was measured via fluorescence. All experiments were performed in triplicate. The concentration of the supernatant solutions determinate by calibration curves. Imaging was made to 30 μl of uncentrifuged samples.
LLPS are widely known for the ability to encapsulate small molecules or proteins. This characteristic is important for drug delivery and to exploits coacervate as microreactors. In order to investigate the encapsulation capacity of the designed peptides two fluorescent dyes were used (fluorescein and rhodamine B) and the protein GFP. The peptides WGR-1, WGR-3, WGR-4 and WGR-5 were chosen for this experiment for their diverse chemical characteristics. The encapsulation efficiency was measured via bulk measurements and images of the droplets with the dyes were taken in a fluorescence confocal microscope.

Sequence | liquid-liquid phase separation (LLPS) / droplet formation, in words [1] | apparent diffusion coefficient, comparison in words ([2]; FRAP) | apparent diffusion coefficient (D), fold larger than that of WGR-5 ([2]; FRAP, compared with WGR-5) | Apparent diffusion coefficient D ([2]; FRAP) | encapsulation efficiency of GFP, in words [3] | encapsulation efficiency of fluorescein, in words [3] | mobility and dynamics of the droplets [2] | peptide concentration at which phase separation is observed [1]
WGKGKGKGWPGVGY | showed no visual turbidity; also recorded: LLPS was not observed |  |  |  |  |  |  | 
WGRGRGRGWPGVG (WGRGRGRGWPGVGF) [WGR-2] | arrested phase separation; also recorded: LLPS was not observed |  |  |  |  |  |  | 
WGRGRGRGWPGVGF [WGR-3] | created LLPS at higher pH value comparing to WGR-1 | largest apparent diffusion coefficient | more than 5 fold | 5.52E−14 m^2 sec^−1 | lowest encapsulation efficiency | lowest encapsulation efficiency |  | 
WGRGRGRGWPGVGY [WGR-1] |  |  |  | 4.518E−14 m^2 sec^−1 |  | no significant difference | 4.52E-14 | 
WGRGRGRGWY [WGR-4] | exhibit phase separation at more moderate conditions | lower diffusion coefficient than WGR-1 |  | 2.36E−14 m^2 sec^−1 | highest encapsulation efficiency | no significant difference | 2.36E-14 | 5 mM
WGRGRGWPGVGY [WGR-5] | perform a phase separation at similar conditions to WGR-4 | lowest diffusion |  | 9.27E−15 m^2 sec^−1 | compromised encapsulation efficiency |  |  | 5 mM
